Reference: patent US20160271157A1, “BETA-CATENIN” (UCL BUSINESS PLC, priority 2013, published 2016)

B1: Wnt5A: Recombinant Wnt peptide purchased from R&D systems (protein, UniProt P41221 62-380, looked up)
Protein Wnt-5a: IIGAQPLCSQLAGLSQGQKKLCHLYQDHMQYIGEGAKTGIKECQYQFRHRRWNCSTVDNTSVFGRVMQIGSRETAFTYAVSAAGVVNAMSRACREGELSTCGCSRAARPKDLPRDWLWGGCGDNIDYGYRFAKEFVDARERERIHAKGSYESARILMNLHNNEAGRRTVYNLADVACKCHGVSGSCSLKTCWLQLADFRKVGDALKEKYDSAAAMRLNSRGKLVQVNSRFNSPTTQDLVYIDPSPDYCVRNESTGSLGTQGRLCNKTSEGMDGCELMCCGRGYDQFKTVQTERCHCKFHWCCYVKCKKCTEIVDQFVCK
B2: Wnt9B: Recombinant Wnt peptide purchased from R&D systems (protein, UniProt O14905 23-357, looked up)
Protein Wnt-9b: SYFGLTGREVLTPFPGLGTAAAPAQGGAHLKQCDLLKLSRRQKQLCRREPGLAETLRDAAHLGLLECQFQFRHERWNCSLEGRMGLLKRGFKETAFLYAVSSAALTHTLARACSAGRMERCTCDDSPGLESRQAWQWGVCGDNLKYSTKFLSNFLGSKRGNKDLRARADAHNTHVGIKAVKSGLRTTCKCHGVSGSCAVRTCWKQLSPFRETGQVLKLRYDSAVKVSSATNEALGRLELWAPARQGSLTKGLAPRSGDLVYMEDSPSFCRPSKYSPGTAGRVCSREASCSSLCCGRGYDTQSRLVAFSCHCQVQWCCYVECQQCVQEELVYTCKH

How the values were obtained:
Format in all cases: cell-based
[1] = system: PC3 prostate cancer cell line; experiment: Live [Ca2+]i imaging (Fluo4/FuraRed ratio) after addition of Wnt ligand; conditions: PC3 cells; for intracellular calcium mobilization ([Ca2+]i release) in response to Wnt ligand: 100 ng/ml Wnt ligand peptide, ratio of Fluo4/Fura Red; for dependence of time constants (dwell time) on Wnt ligand concentration / co-operativity: three concentrations of each Wnt ligand, first-order fit; for rise and fall time of [Ca2+]i release: Wnt peptide 100 ng/ml
Experimental: (§1) The imaging protocol was developed in the inventor's laboratory and has been described in detail, elsewhere (Wang at al., (2010) PLoS ONE 5, e10456). Briefly, 100000-200000 PC3, MCF7, 253J or Cos 7 cells were plated on 35 mm FluoroDish (WPI) and grown for 48 h; calcium indicators Fluo-4 (Invitrogen) and FuraRed (Invitrogen) at 1 ng/ml were added to FluoroDish containing only 1 ml of culture medium and incubated for 15-20 min at 37° C. The culture medium was removed and washed (×2) and replaced with 1 ml PBS. Live cell calcium Imaging was performed on an Olympus FluoView FV 1000 confocal microscope (Olympus KeyMed) equipped with a 20× dry objective (numerical aperture=0.75). Calcium indicators were excited with an argon laser line (488 nm) and emissions recorded in the green channel (500-560 nm) for Fluo-4 and red channel (600-700 nm) for FuraRed after addition of vehicle control (PBS) or Wnt X (30-600 ng/ml). Images were acquired every 1.1 or 2.2 seconds for up to 600-800s; image and data acquisition was performed using FluoView 1000 software (Olympus, UK). Fluorescent intensity was measured and data exported as a tab delimited file for further analysis using a spreadsheet. All imaging experiments were performed in duplicate; intracellular calcium at 100 ng/ml was measured in at least 3-12 different passages (passage numbers 25 to 37) of cell line for each Wnt ligand. Wnt 11 was tested in at least 5 different passages at 3 different concentrations. To test if the Wnt activated calcium release was from [Ca^2+]i stores, in some cases PC3 cells, loaded with calcium dyes, were incubated with 1-5 μM of thapsigargin (Sigma, UK), resuspended in dimethyl sulfoxide (DMSO), for 20 min at 37° C., prior to addition of Wnt ligand and live calcium imaging (as described above).
The experiments were performed using 35 mm, glass bottom, FluoroDish containing 1 ml PBS, at 37° C., to which ligands were added at desired concentration. In a static, non-superfusing assay system there is a lag time before the start of a response, in this case an increase in the intensity of the Fluo4 signal due to the release of free calcium. To measure the diffusion constant under these conditions we used Pontamine Sky Blue (Sigma Aldridge), which fluoresces in the red spectrum with 488 nm excitation, using standard practice for adding ligands; the diffusion constant was measured to be 23.3±2.1 μm·s^−1 (means±S.E.M, n=8). The calcium wave, in response to Wnt ligands, travelled across the FluoroDish.
(§2) After image acquisition, regions of interest (ROI) were drawn over individual PC3 cells (up to 25) in a single frame and calcium intensity measurements were made using FluoView 1000 software (Olympus, UK). The measurements were exported as a tab delimited file into a spreadsheet for further analysis and Fluo4/Fura Red ratios were calculated. The waveform, a product of the ratio of Fluo4 and FuraRed over the period of measurement was used to measure the kinetics of the activation of [Ca^2+]i release in PC3 cells, in response to different Wnt ligands. The time constants (rise, dwell and fall times) were calculated by first fitting the Fluo4/FuraRed ratio to a single Gaussian function (Origin Lab Corp., MA); a lower (10%) and upper (90%) amplitude thresholding method was then used to calculate the time constants (s). Statistical significance was calculated using Mann Whitney U test.

PC3 cells = experiment: Scratch wound assay; conditions: wounded PC3 cells, ±Wnts and thapsigargin, vs control untreated cells
Experimental: PC3 cells were grown in 24 well, ImageLock plates (Essen Bioscience, MI) to confluency and scratched using a wound maker device (Essen Bioscience, MI). Imaging (at 2 h intervals) and quantitation of wound width was performed as described earlier (Wang at al., (2010) PLoS ONE 5, e10456) using Incucyte (Essen Bioscience, MI). The rate of wound closure (±Wnts and thapsigargin) was calculated by fitting the line using linear regression function in Origin software (Origin Lab Corp., MA). Statistical significance of difference between the slopes for untreated and treated samples was calculated using F-test.

[2] = system: Wnt induced calcium release; experiment: Wnt induced [Ca2+]i release after preincubation with thapsigargin or membrane potential regulating compounds; conditions: PC3 cells, thapsigargin 5 μM for 15 min; Wnt5A 100 ng/ml, Wnt9B 200 ng/ml, Wnt10B 200 ng/ml
Experimental: as §1, with “To test if the Wnt activated calcium release was from [Ca^2+]i stores, in some cases PC3 cells, loaded with calcium dyes, were incubated with 1-5 μM of thapsigargin (Sigma, UK), resuspended in dimethyl sulfoxide (DMSO), for 20 min at 37° C., prior to addition of Wnt ligand and live calcium imaging (as described above).” left out
To measure the effect of changes in membrane potential on [Ca^2+]i release using the protocol described above, in some experiments, external solution (PBS) was substituted with varying concentrations of KCl. In other experiments chemical inhibitors of K^+ channels such as TEA, CsCl or tolbutamide (Sigma-Aldrich) were added to the cells grown on FluoroDish, at 37° C., at least 5 min prior to addition of Wnt ligands.
as §2

| Molecule | intracellular calcium mobilization ([Ca2+]i release) in response to Wnt ligand [1] | dependence of time constants (dwell time) on Wnt ligand concentration / co-operativity [1] | time for thapsigargin-evoked calcium transient to decline to baseline ([1]; thapsigargin 5 μM final concentration) | rate of wound closure (PC3 cells) | increase in [Ca2+]i in response to Wnt ligands (5A, 9B and 10B) after thapsigargin [2] | rise and fall time of [Ca2+]i release [1] | K1/2 (half-maximal concentration), Michaelis-Menten kinetics of dwell time of [Ca2+]i release ([1]; estimated from fit of dwell time vs Wnt concentration) |
| --- | --- | --- | --- | --- | --- | --- | --- |
| Wnt10B: Recombinant Wnt peptide purchased from R&D systems | induce intracellular calcium mobilization | negative co-operativity | – | – | – | – | – |
| C/C=C(/C)C(=O)O[C@H]1C(C)=C2[C@H]([C@@H]1OC(=O)CCCCCCC)[C@@](C)(OC(C)=O)C[C@H](OC(=O)CCC)[C@@]1(O)[C@H]2OC(=O)[C@@]1(C)O [thapsigargin, reference compound] | – | – | ≤ 120 s | significant decrease | abolished | – | – |
| B1 | induce intracellular calcium mobilization | classical Michaelis-Menten kinetics | – | – | – | shortest | 67 ng/mL |
| B2 | induce intracellular calcium mobilization | negative co-operativity | – | – | – | slowest | – |
